PMC12035558, “Structure of the Saccharolobus solfataricus GINS tetramer” (Acta Crystallographica Section F: Structural Biology …, 2025)

Target: the molecule itself
Experiment: crystal structure; co-expressed and co-purified SsoGINS tetramer, 11 mg/ml in 20 mM Tris pH 8.3, 100 mM NaCl; hanging drop, 0.18 M triammonium citrate, 20%(w/v) PEG 3350, 291 K; space group P6_(3), 2.3 Å

B1: Saccharolobus solfataricus GINS51 (natural protein)
chain: MLDELVKKELSEEEITEIKLEEIIKYITLIKKSKTFVSSEIRKEELKFLSELAESLFELRLSKVLEGKVGKGFDEFIFDIFKILKQFYVDLLTGRYIIYNDKIYCIVQKPLIYNDHRVNEGDVLVLPMREALPLIIASYLTPYKIDIEEQL
notes: GINS51 of Saccharolobus solfataricus, gene amplified from genomic DNA (ATCC 35092D-5); Two copies stand in the (GINS23)2(GINS51)2 tetramer; A subdomain (alpha-helical) comes first, B subdomain (with beta-strands) second; also called SsoGINS51; Sso51
B1: binds.
